This series can be described thus: label from the status in PepcDB records.
Turning to “MSWAAPDDIFFSTSLAAYLDKKLLVLLRDGRKLMGLLRSFDQFANAVLEEAYERVIVGDLYCDIPLGLYIIRGENVVLIGELDVEKEELPAHMVQVPEAEIKRAQKAEKEEMLLKGTMRKRMEFLDLD”, the protein production entry is “failed”.

Take “MSWTVDIPKEVLPDLPPLPEGMQQQFEDTISRDAKQQPTWDRAQAENVRKILESVPPIVVAPEVLELKQKLADVANGKAFLLQGGDCAETFESNTEPHIRANVKTLLQMAVVLTYGASTPVIKMARIAGQYAKPRSSDLDGNGLPNYRGDIVNGVEATPEARRHDPARMIRAYANASAAMNLVRALTSSGTADLYRLSEWNREFVANSPAGARYEALAREIDSGLRFMEACGVSDESLRAADIYCSHEALLVDYERSMLRLATDEEGNEELYDLSAHQLWIGERTRGMDDFHVNFASMISNPIGIKIGPGITPEEAVAYADKLDPNFEPGRLTIVARMGHDKVRSVLPGVIQAVEASGHKVIWQSDPMHGNTFTASNGYKTRHFDKVIDEVQGFFEVHRALGTHPGGIHIEFTGEDVTECLGGAEDITDVDLPGRYESACDPRLNTQQSLELAFLVAEMLRN”: the protein production result is on record as “failed”. “MSYDVIVRNGLWFDGTGRPPQVRTLGIRDGVVATVSAKPLDETGCPEVIDAGGKWVVPGFIDVHTHYDAEVLLDPGLRESVRHGVTTVLLGMCSLSTVYSDAEDAADLFSRVEAVPRQFVLGALESRKTWSNPAEYVAAIDALPLGPNIASLLGHSDLRASVLGLDRATTRGVVPTDDELETMADRLDAALDAGMLGMSGMDAAIDKLDGDRFRSRALPSTFATWRERRRLIKVLRKRGRILQSAPNVAKAQEALNFFLESSSLFGRRRGVRMSLLVSADAKSSPGAARVIGMGTRLLNKTLDAKVRFQHLPVPFELYSDGIDLPVFEEFGAGTAALHLRDQLERNKLLADPEYRRRFRRSFDRRKLGPTLWHRDFHDATIVECPDESLIGKTFGRIADERGIHPLDAFLDVLVDNGEKNVRWTTIVANHRPKVLDQLANDPAVHMGFSDAGAHLRNMAFYNYPLRLLKRVRDAQLSGRPFLTTERAVYRLTAEVADWFGVDAGTLREGDRADFVVIDPNCLNSDVDAYHEETVPFYGGLSRMVNRNDDAVVATAVNGTVVFGKGEFRDGYGDTVKSGRYLRAGADSRLKTAVLEHHHHHH”: the protein production result is reported as “failed”. The entry for “MSYIRLVTWNVDFDSPFNYERFTAIAEEVLGAKPGVVLFQEVSDLPFSSWQGEKEQSTITSARQHDSCYKVLLRRLEALYEPIVDLGLPSEQAYFVMAFVDRSKYRVHGYEYTEFENSSQGRGLLAIQLEPRDMCGDFKFRVLTSHLESGTACSEVRVQQMRQIAYEMLEGDTPAIFAGDTNFREKEKAGFEKEIAKAIGSEEMRLFDLFVEVGEPSHLRFTWDTRTNTNKVKELPPRFRPRARFDQVLFTRPFQANAMRLLGRERLGHAVFPSDHYGIYGELRF” is “failed”; for “MSYSVMFALLLLTPLLFSLLCFACRKRRLSATRTVTVLHSLGITLLLILALWVVQTAADAGEIFAAGLWLHIDGLGGLFLAILGVIGFLTGIYSIGYMRHEVAHGELSPVTLCDYYGFFHLFLFTMLLVVTSNNLIVMWAAIEATTLSSAFLVGIYGQRSSLEAAWKYIIICTVGVAFGLFGTVLVYANAASVMPQAEMAIFWSEVLKQSSLLDPTLMLLAFVFLLIGFGTKTGLFPMHAWLPDAHSEAPSPVSALLSAVLLNCALLVLIRYYIIICQAIGSDFPNRLLLIFGMLSVAVAAFFILVQRDIKRLLAYSSVENMGLVAVELGIGGPLGIFAALLHILNHSLAKTLLFCGSGNVLLKYGTRDLNVVCGMLKIMPFTAVLFGGGALALAGMPPFNIFLSEFMTITAGLARNHLLIIVLLLLLLTLVLAGLVRMAARVLMAKPPQAVNRGDLGWLTTSPMVILLVMMLAMGTHIPQPVIRILAGASTIVLSGTHDLPAQRSTWHDFLPSGTASVSEKHSER” it is “failed”. In the case of “MTAAIRRTVTFPGVSMARLKSMLGAYNGHLKQIEQRLDVQITHRGDAFYIDGDIDAVERAESLLQRLYNESETSDQISADILHLMIQGSQTDRELMDDSEQEHTGLDNVWLQTPKGRINPRGTNQKRYVQRILQSDISFGIGPAGTGKTYLAVAAAVDMLERNEIQRILLVRPAVEAGEKLGFLPGDLAQKIDPYLRPLYDALYEMLGFEKVAKLIERQVIEVAPLAYMRGRTLNHSFVILDEAQNTTPEQMKMFLTRLGFGSRAVITGDITQVDLPRGQQSGLAHALRVLEPIKEIHITRFHSRDVVRHQLVQKIVEAYEGWDSEQNRLSAEARAERKARQEALMSEHDAAADAQHQEA”, the protein production entry is listed as “failed”. “MTAAPAALHDRALHLLQTIWGYPAFRGVQGEIVQQVAEGGNALVLMPTGGGKSLCYQLPSLLRPGTGIVVSPLIALMKDQVDTLRQNGVRAAFLNSTLLPHEAREVEDALLRGDLDLLYVAPERLLMPRTLDLLERAPVALFAIDEAHCVSQWGHDFRPEYQQLSVLAERFPELPRVALTATADERTRADIKSVLRLEDAPQFVSSFDRPNIQYRVGLKDSPKTQLLHFIREEHPGDAGIVYCLSRKSVEETAKWLQAQGIDALAYHAGLSSTERNNVQERFLNEEGVIVCATVAFGMGIDKPNVRFVAHLDLPKSMEGYYQETGRAGRDGLPSTAWMVYGLSDVVNVRRMLAQSDAPEEVKRVEASKLDALLTYCEAATCRRQVLLHYFGEELSEPCGNCDVCLNPPRVRDLTREAQMALSATIRTGNRFGAAHLTDVLLGRETDKVLAQGHHQLPTFGVGKEHDEKLWRSVLRQLVSLGYLSADDHFGLRATGKSRGILKEGQKLLLREDTLLPGAGKSKRDRASASRAALDSHDAPLFEALRAWRLQKAKELSLPPYTIFHDATLKTIAELRPGSHATLGTVSGVGGRKLAAYGDEVLQVVRDSSGGGQAGPENLLDSPAFDPAVRGARNNNAVLDVLGSKGELQPQPKPAHPGVLGALRELRRTLAAEQGRSLSWVFPEATIDELARKLPTRSEELKDVFGLGGQRIQAFGDRILATIRAELTGGAPSPAPSAPAALFDEAVPPAPNADLSEALRELRRELMKETGYSAFVVFTNATLEALAARQPRTLAELAEVPGLGEKRIEAYGERILDAINTVLDG”: the protein production result was “failed”. For the sequence “MTADEWPQRLIRFTDWSHAEATAVEHLLPVLIAQESELAQWSFLRKHPWWRLRYRPACPDSAKALDAALDELVDAGVLASWTRGIYEPEETAFGGPAAMKIAHALFHYDSRHLLDEAARQQTVSGPRLGRRELAVLLLSVAMRAAGLDWYEQGDVWARIAAERSGDEVRSPQRHRAAVHRLMTVDVSTTSRSVARGRLAPLAEWIATFEWFGQQLADLNRQGRLERGLRAVIAHHGIFHFNRLGLAAQDQHTLSTLAKEVVMGTSDNAASTQAEGAPGATVNGVNSDTIEAPSADRLRAQLIDHLVETGCVRTPRVEEAMRTVPRHLFVPNAPLEKAYGNAPVDTKFDGSGRSISCASQPDIVAMMLEQLDVQPGQKILELGAGTGFNAGLLGYLVGETGHVTTIDVDEDIVAGARGGLAAAGIHNVEVILGDGAVGHTPNAPYDRIEATVGAHGVPHAWLDQLAPGGRLLTPLRLRGSVSRSIAFENQDGAWRSVGSQMNTFMPLRRGIADDPRLFVPLDPDHTVTLVTNGDQKVDADALGDIFRQPRTEAWTDVTFRGPESAEYLELWLTCAMPNGLSRMPAKNEAIEKGLVTAPYPSSTAVFEDGTLTYLTRRPYAKKAPDGATLYEFGVIGHGPDAEALAGDVADQIRAWDQDFRALDVGFEIQPLDAAPLAPKPGRFAFDNPLNRIVIEWQ”, the protein production entry was “failed”. The entry for “MTADPTKNDPHGLGTASRPAAELAVGETETIPVIEETARIDKRVVEKGRVRVQTRTETTDDVLRETLRSDVVGVTRIPIDRVIAEGEVAPTIRTENGVTIIPVLEEVLVVEKRLILKEEVHIRQTTSGEAVEVPVTLRRQHAVVERVSADGHVSEIPPKEQTP” is “failed”; for “MTAEIDIQNSIRLELSRHGHYVFRANVGKVRMPNGRIFDTGLPKGFPDLFGFRGTDGKMFFIEVKNEIGKLRQEQKNFQQAMEITPAIGVARSAEEALKIVEGLEHHHHHH” it is “failed”. Next, “MTAEVLIGDGDVRLSPHPLRAIVLGEVHARPFTALSLPARVLHFAFDTSGQRAAADRAAMISFCESRGLQPPPPGEKHHRANFGTTTLRWEQHSEFTTYTWEIPADPAGVPFHPEASSLASPMRLLPQPGPLLVAVDLHAMPEDPPRTSPERLFDRASLAVAENSDGAALFATDFQPGPSGFVRVLVIDRGMSAERAGALVQRVLEVETYRTLALLGLPEAQRLAPSIAASERRLAEVTAEMRRAGDLANNNKLLQELTELAAEVEAGAAASLYRFGASRAYDEIMNGRLATLGERKVGGLPTWSSFLARRMKPAMRTCATTEARQSDLSLKLARAANLLRTRVDVEVEQQNQELLKSMNARTRLQLRLQTTVEGLSTAAITYYVVGLFGYMVKGAAEAGRLKIDPNLLTAGFVPIAALVIWWTIRRIRKKHIPDVD”: “failed”. The entry for “MTAFDPFEDFGDTEEIGERLNDADPAVRRLAVIDLAETANADVLPHLLTAVADPDATVRLQVAIALSEFDTVEAAAGLARLAADQDLTVAQAAADSLAELKDPATADSILPLVSHGRAFVRAAGFRGLKALRSRGALAPALAAMRDEDANVRAQALGVVAYLKLEETLPSLIAATRDAEAIVRSVAVNALSFTSQPAAAAAVTAALDDENWQVRAAAADTLGRIGQTSAVDGLTAGLSDEYWQVRQKCLNALGKLKAQSAVRQISELLTSDLASLRKESAAALGEIADPSSRAVLMHHIGDADPDVRKTVCWALTRLG” is “failed”; for “MTAFRQRPLRLGHRGAPLKAKENTLESFRLALEAGLDGVELDVWPTRDGVFAVRHDPDTPLGPVFQVDYADLKAQEPDLPRLEEVLALKEAFPQAVFNVELKSFPGLGEEAARRLAALLRGREGVWVSSFDPLALLALRKAAPGLPLGFLMAEDHSALLPCLGVEAVHPHHALVTEEAVAGWRKRGLFVVAWTVNEEGEARRLLALGLDGLIGDRPEVLLPLGG” it is “not failed”. In the case of “MTAGGTMTLKITFLGSGSSFAIGPENYQSNVLLELENDTLLIDAGTDIKYSLRDQGLSYKDIKNIYISHLHYDHCGGLEWFALITYFDPNLSHKPCLIASDKIINELWDKSLSGGLSTLPHERANLSAFFDVKAVKQYEGFVWRSIKFKLVQTVHYYSEYELMPSFGLIFSYNKSRILFTSDTQSCPVQLISFYEESDIIFHDCETTESKSGVHAHYSELVKLPSHLKKKMWLYHYNPGKLPNAKKDGFLGFVAKGQSFVF”, the protein production entry is “failed”. Next, “MTAKAACSDFLHFFRSWVSNPLRVAAIAPSGDSLARIMTSEIAALDGPIIELGPGTGVFTRALLARGVSEADLTLIEYGPEFITSLQARFPTARVLQMDAAHLAHADIFEGEPVGAVVSGLPLLSMSPRKIASILAGAFAYMRPGGAVYQFTYGPRCPVPRPILDRLGLKAVRIGGTVRNLPPASVYRISRRKPLELSRERFSYRSSAADVDDVAAFSNETGG”: “failed”; “MTAKPAVVGGFILGALALGVAAIVLFGGQRLFTSTREVVVFFNESVAGLQVGAPVTFHGVPVGTVKTIALRVSTRDLSARIPVVLELQPDQISWEGEHLNGDDDTYQRLIAAGLRAQLAPQSIVTGQMRVDLDFKPGTSAALSGEPTDLPEIPAVASDLDELRDKVTELPLRDLVETAQKTLANVQALTSSLNTRIPTLTTSAEQSVAVATQTLVTTQEAVRQIQADASVTLKELSDLLADLHRQVDARGGELGKTLSAAERTARQAESLMISLNELAGPRARFRADLEAAARDLSASASSTRSFTRTLERDPSALLSGDTKR”: “failed”.

(Values after a protein production outcome set (Wang et al. 2014).)
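Also: failed if final PepcDB status was selected cloned or expressed and not failed if soluble or beyond.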
